Measured values: publication PMC12707108, “CpoS-Inc interactions facilitate host cell modulation during Chlamydia trachomatis infection” (Infection and Immunity, 2025)
“And” between values parts separate entries of the source, which are not always exact repeats. Identical values can stand only once.

Columns and labels:
[1] = molecular target: MBP-IPAM C-ter (Chlamydia trachomatis serovar L2 (LGV 434/Bu)); experiment: SEC + other: mass photometry + native gel or EMSA; purified MBP-tagged proteins; Superdex 200 SEC, mass photometry of SEC fractions in DPBS, native PAGE
[2] = molecular target: MBP-InaC C-ter (Chlamydia trachomatis serovar L2 (LGV 434/Bu)); experiment: as above
[3] = molecular target: the molecule itself; experiment: not stated; CpoS C-ter in acidic and basic buffer conditions (Fig. S3C)
[4] = molecular target: the molecule itself; experiment: mass photometry; fractions of MBP-CpoS C-ter from Superdex 200 SEC (13 and 14 mL); 100 nM protein added to DPBS, room temperature
[5] = molecular target: the molecule itself; experiment: SEC + other: mass photometry + native gel or EMSA; purified MBP-tagged proteins; Superdex 200 SEC, mass photometry of SEC fractions in DPBS, native PAGE

Molecule: MBP-IPAM C-ter (domain or fragment)
- stoichiometry N [1]: 2 and 3

Molecule: MBP-InaC C-ter (domain or fragment)
- stoichiometry N [2]: 2 and 3

B1: MBP-CpoS C-ter (domain or fragment)
chain: RARSRRVEIERQLEVVSMQIEELEEEYKALSEVYRANLEARRAVSKYCQELEEKILDLCKRHAATICSIEEDAKQEIRHQTERFKQRLQQNQNTCSQLTAELCKLRSENKALSERLQVQASRRKK
notes: also called MBP-tagged CpoS C-ter; MBP-tagged CpoS; source: E. coli BL21 (DE3), purified (amylose resin, Superdex 200)
- stoichiometry N [3]: 2
- stoichiometry N [4]: 4 and 8

B2: MBP-IncA C-ter (domain or fragment)
chain: QKTANLHLYQDLQREVGSLKEINFMLSVLQKEFLHLSKEFATTSKDLSAVSQDFYSCLQGFRDNYKGFESLLDEYKNSTEEMRKLFSQEIIADLKGSVASLREEIRFLTPLAEEVRRLAHNQESLTAAIEELKTIRDSLRDEIGQLSQLSKTLTSQIALQRKESSDLCSQIRETLSSPRKSASPSTKSS
- stoichiometry N [5]: 4
